{
  "source": "paper PMC6401066",
  "about": "“A dynamically interacting flexible loop assists oligomerisation of the Caenorhabditis elegans centriolar protein SAS-6” (Scientific Reports, 2019)",
  "molecules": {"B1": {"name": "CeSAS-6N-CC Δ103–130 (domain or fragment, C. elegans, UniProt O62479 1-215, looked up)", "chain": "MTSKIALFDQTLIASLLQPLSLNQPDFKAYKTKVKLKISEQRNETSGEKELKFEISRSDDFEFLFSETLNNEKYQILARDHDLTVDFDAFPKVIIQHLLCKNTEINIILDAEKNFCSFELFSKTPISKGKIFSIKLHAVRGDHLISHLLKICSSQAVKLSTFYKSADELASLRQKCGDLEKQVEKLS", "notes": "source: E. coli BL21 (DE3), purified (His-Trap HP, thrombin cleavage, Sephadex G75 SEC); not shown: His6, N-terminal, cleaved"}, "B2": {"name": "C. elegans SAS-6 N-terminal domain plus a short stretch of the coiled coil, wild type (CeSAS-6N-CC WT, amino acids 1-215) (domain or fragment, UniProt O62479 1-215, looked up)", "chain": "MTSKIALFDQTLIASLLQPLSLNQPDFKAYKTKVKLKISEQRNETSGEKELKFEISRSDDFEFLFSETLNNEKYQILARDHDLTVDFDAFPKVIIQHLLCKNIVKNLEEDGEVDARKKAGYHSIADPGKPTEINIILDAEKNFCSFELFSKTPISKGKIFSIKLHAVRGDHLISHLLKICSSQAVKLSTFYKSADELASLRQKCGDLEKQVEKLS", "notes": "SAS-6, C. elegans, N-terminal domain plus a short stretch of the coiled coil, amino acids 1-215; Forms a dimer through the coiled coil (calculated mass of the dimer 48.8 kDa) that assembles further through the NN interface; also called WT CeSAS-6_(N-CC); source: E. coli BL21 (DE3), purified (His-Trap HP, thrombin cleavage, Sephadex G75 SEC); not shown: His6, N-terminal, cleaved"}, "B3": {"name": "CeSAS-6N S123E variant (domain or fragment, C. elegans, UniProt O62479 1-168, looked up)", "chain": "MTSKIALFDQTLIASLLQPLSLNQPDFKAYKTKVKLKISEQRNETSGEKELKFEISRSDDFEFLFSETLNNEKYQILARDHDLTVDFDAFPKVIIQHLLCKNIVKNLEEDGEVDARKKAGYHEIADPGKPTEINIILDAEKNFCSFELFSKTPISKGKIFSIKLHAVR", "modifications": "1,5-IAEDANS conjugated to C100 (fluorescence polarisation samples)", "notes": "SAS-6, C. elegans, N-terminal domain, amino acids 1-168, with S123E; source: E. coli BL21 (DE3), purified (His-Trap HP, thrombin cleavage, Sephadex G75 SEC); not shown: His6, N-terminal, cleaved"}, "B4": {"name": "C. elegans SAS-6 N-terminal domain, wild type (CeSAS-6N WT, amino acids 1-168) (domain or fragment, UniProt O62479 1-168, looked up)", "chain": "B3 chain with E123S", "modifications": "1,5-IAEDANS conjugated to C100 (fluorescence polarisation samples)", "notes": "spindle assembly abnormal protein 6 (SAS-6), C. elegans, N-terminal domain, amino acids 1-168; Samples for NMR were isotopically labelled (15N) and carried no fluorophore; also called WT CeSAS-6N; source: E. coli BL21 (DE3), purified (His-Trap HP, thrombin cleavage, Sephadex G75 SEC); not shown: His6, N-terminal, cleaved"}},
  "key": {"[1]": {"biological_target": "SAS-6 coiled coil (CC interface) (Caenorhabditis elegans) (UniProt O62479)", "conditions": "cited from earlier work"}, "[2]": {"biological_target": "the molecule itself", "assay": "SEC; analytical SEC, Superdex 75 10/300 GL, PBS (20 mM sodium phosphate pH 7.0, 150 mM NaCl, 2 mM DTT); different protein concentrations, up to 10 mg/ml; self-association"}, "FP": {"biological_target": "the molecule itself", "assay": "FP"}, "[3]": {"biological_target": "the molecule itself", "assay": "fluorescence polarisation; 1,5-IAEDANS on C100 of CeSAS-6N; polarisation against protein concentration in PBS; fit of an ideal self-association model; monomer to NN dimer; three independent experiments"}},
  "note": "Numbering of substitutions follows the chain as printed. In names and notes the source's numbering stands.",
  "data": [
    {"molecule": "SAS-6 coiled coil (CC interface) (from UniProt O62479)", "values": [
      {"measurement": "Kd", "setting": "[1]", "result": 1, "unit": "µM"}
    ]},
    {"molecule": "B1", "values": [
      {"measurement": "stoichiometry N", "setting": "[2]", "result": 2}
    ]},
    {"molecule": "B2", "values": [
      {"measurement": "binding result", "setting": "[2]", "result": "binds"}
    ]},
    {"molecule": "B3", "values": [
      {"measurement": "Kd", "setting": "FP", "result": 48, "unit": "µM"},
      {"measurement": "fold increase of NN affinity against CeSAS-6N WT", "setting": "[3]", "result": "~2", "unit": "fold"}
    ]},
    {"molecule": "B4", "values": [
      {"measurement": "Kd", "setting": "[3]", "result": "~100", "unit": "µM"}
    ]}
  ]
}
